Source: the supplement of paper PMC12636428

Tested on: Saccharomyces cerevisiae
Test: transcriptional activation domain activity (GFP:mCherry ratio, weighted mean of sorted bins, harmonized to initial dataset scale) (arbitrary fluorescence ratio units); higher = stronger transcriptional activation
Conditions: beta-estradiol 1 µM; induction time 4 h
Procedure, shortened: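 Sorting into 8 bins by GFP:mCherry ratio followed a 4-hour hold at 30 °C after cultures were diluted 1:5 into SC with 1 uM beta-estradiol. The yeast diploids carried a GFP reporter and had barcoded protein tiles, fused to an estradiol-inducible synthetic transcription factor, integrated at URA3. Barcodes were then sequenced, and tiles with under 50 reads were removed. Activation activity is the read-weighted mean of bin median fluorescence, averaged across barcodes and linearly mapped onto the initial dataset scale.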

Sequence	transcriptional activation domain activity
VSPQIYYGSRLLGSGGLGLYFLRLPSLPCRTVVEILNTFLFFVMISYLQILLY	46400
KDRKEKAEEKSGEEDRGKREDGAAEGEEREEVKRSAARKPKTVPAAASKKRPK	34600
RLFALLHLHILAYISFFISSSLAYHLHLFLLLLSYFSLLFCIFVSPRLGLSSC	66400
MLPLVLLLLLLLLLLLLLLLLLLLLLLLLLIMMMIMMMMFLLFLLLLRARVRQ	13600
NFIIQGNSMISTPSGRNDLPDTSPMSSIQTASPPSQLLTDQGFADLDNFMSSL	74500
AESQLTLRAIVSSKEAGVIIGKGGKNVADLRDETGCKAGVSKVVQGVHDRVLT	22300
SGPSRERYFLFVFLGSFFWYFFPGYLFQALSWFSWVTWIWPHDTAIAQLFGYF	52100
ALNTFLDGLVFQLFPMVADLWIAAAYFFVVFDAYYSLMVISVTWFYIWMTIYM	55200
LYLCLVILFKRCIIGGFKAGPRRHDQVTLMRYWFMEKLLPPGENLQGVASILG	16200
QLNLVNHFYQFSLHFFLDIFDYILHHNPNLKGVTDYPTRRAILLNDLFLVVYR	58200
ELGSFRLLSFRVWCLLGTGSFWGLLYTAIAKMDGYTFGFLLQAHHVLKLLLVS	54400
AMRSWSGLMVLSMYDFRPIRSLIASILFPNAAIRETVLDLLFSLLRIKPPAWA	38100
MELYGTHGVFYYYFFVIGFFLDYHSFLSPLLSLLMRIEKDVSGIFFFVFLFFC	63700
IRFTLPTLVFAAVQLARRFKLLEAGGWSEWARKMCSLYKFVHQIIGLLYTRVE	62600
CYFLLLLHLPCYRFLFLFLLWLLGQVSHFFLLSHHLIILFWGFVILYSYYIST	63000
IHSMYRPFQMLTMDFMVMNLCLFSAILLGILYLFFGAFHLVFTVVYDFKLWQV	43200
PQYLHLGYLGHHIAIDPIPHPVGTVYLPLPPDTFPTWCTVTACGWILLPLFPL	29000
LLTYKLYRLWIVAAKITDDEKRKQCLHLTCCLLPKCHRDSLEILFYFLKWAGT	50700
WKKTIQNKIKDSLTLSSKEKELLHLIEHGAEQTTENSNLFYDIFEEIIDSLPS	112000
GGGEAQKPRPAAERKKQEANGHAHHDHSQGNHHGHRHKHAKDAKKAEDGGARK	32500
KEGMGWVDVLFSVCTSIILVQLVFVLGWWLLFLFLSMYHMLTFCIIIFILYKY	53300

Sequence	transcriptional activation domain activity
SNGKEMAFQYYSFVKEWGHVLGRYPGEIERCLIGTLGNIFFSGVKPIANSYFL	45400
MEEPSGDASRRRNGPRLYHKKSRLGCIRCKQRRVKCDEKRPACTGCSRHAVEC	60500
RASHNASGFPNFLDTSCSSSFDDHFIFTNNLPFLNNNSINNNHSHNSSHNNNS	56800
KTIFFCGGRFLTSRALWAFCLSMFLFVMPSVLFLIFTCPWLWHHISPAVPIIF	41300
GACLQDIAMVGFIDTNSIGCVASSVVLYLSLVFIIGVVAIRFFMAVMFQWFFS	35600
EEEEPSDEGEGEELDENGDVVMADVSQKSTKSKKEEPAQRYIGSVEVLSKLNL	< 6570
LSLLSLCLGILHSSFKTCFVLLFVLIHICICTLFLIFSFFTPLLTIPTYVTLS	57500
VLRWGDTNTLPFVHIMMVFIHKMAQYAAAMSYLEQVFPWKLTMVMLNYHLTSC	68500
PAAGGFGATSTPAPAAGGFGGFGATAAAAKPAVGGFGGLGGGASAAPATTLTS	23300
FTELEKHSNVSQFNTLDVSEGNQVINESASTNTSSALNCQSYTNNQDIMDILF	48800
SPQRSTSSTSSKAAAAPKAAAQPKQQQQKPAAPSKPAAAAAAPKTAPKPAAAS	26000
MDNIRSKHNHLLTAGWIYAFIDFWCITLRHFLIFIASMLFYGYLCIWCPTILV	59000
MYMIFINPLLLMIILYIKLLPLMFPLLINLLILLIFLLYIHLLSIVFLQKFYI	60100
PAEAPAAEPAAATEAPAETKDEKKEEKKEEKKEKKDEKKTEKSAKVGRRLSAR	45100
GAKEEGGKKEAGGEKKEGSGKEGAKEGGEKGAKEGGEKKEGGEKGEGKEGGEG	20300
EGLYKCRYGSYFIELSRYSFFFAMFLFFLRAGWYPFSAFWLGCFWHQLVFTAH	40800
AGQILANQVIITNLTNFIYSITPLPVRYYYLLEMLKFIFFLFMLGMLPLALCA	52400
FFLALSFRDALAATSMMNLNNCMADPLLGKWVCQLLPSLTSILMFTVELVLFF	63800
VVSFFVILGYMLLYRMRSTQLWSNRSTSSFGERPKPPIVAYRSIIIRIGLRKL	67300
GAKVRSWPLTYIYTLYFFMTYFIFYRNLFARLQDPKQVLYLQLGLSMWIVFIY	35200
AMPTFDLVMWYREFQRILLEMRAYVIYKATVLPRWSNPSYDRPFPVLPVRGVI	48600

Sequence	transcriptional activation domain activity
LLPLFFASIGFAIVSMILIFSSNVVCLLICPHQALSRIVASYLLRHDPKYLCA	71600
YDLLSVKDLHIQDRLLSARIVLSDISFLKRILMLLGVPDGLSSRLVSHLWCAV	58400
IGSLLCERADVIARLVSYLLRRYAIDGFRTILLWLNDWPVGLKLNYHLASHFC	56800
EDEEDAVNGTALSEEDAAERDAKLKRLREEAERKALARRSQAVQRGLPRPANV	14900
HCLTFHQTSKLTHILLTYRQSILVTVYSHLLLLDHSSQVWWRWMNIFFTLVIW	69500
PPWVDDCNPFLTDVYYLGSLLKRTFFVVYELTYKDFLFLLTLPVHRTPFLLCN	50900
DYSIAQFRFLQRLLLVHGHWNYNRIAQYALATFWKEMLFYCIQLLYQRWNGYT	37500
LFCALMPIRFYTYFKQSFQYYLADLCYYVNLLLLIFLWVLPTSCSLFISVFSL	78400
MLMIVVNDTIFYITVISHILLAYYGLVTIDNGLLLSNPTWYCPLNYTLIATCI	61700
MSAAEDNKPVEAVEKVEEAPQAEEVPKVEEAPAQEEAGATASEKKDANILKTT	25700
KQYCVRPNSGRIEPGSDVEVQILLQAMKEDPPLEAKCRDKFLVQSVAVSADKE	45400
KRSRKHSSREDVGEEGEDRRSEHRERKKEKEREKDKEKDKDRSRSRHKRSRSD	53600
SLPYFLYICDWYLCNSFLYLSSILSFHCVYLCCFASIITLWFPAFFLTVILSI	51500
YILSSLVTYKGIINHNDQSILILGIPKLHRLLMENVHVLHLLINSCITTLASC	44000
IMTKSEQQIVKCVKLMLSSSEKRYRLFNDSFSVIIFRIVDMNYGLRLLNLIID	56100
MKSHDLFFFLLLLFQLTSFSSIQLFPAVRVILHVLSHLFMVLHAYCCLPPFIF	64400
LHLFTNIDILKYDYGHIREDHIWVCLMHFTKRSRVVRWLVKSIYRPLLLGGLR	77200
NTTTPDAAEGDAEGEDSASASGSGSEGKGGEGEEKTGKKGKKGRKGKLLQRLK	29500
LYAWLSFFWVLVYVYFFSITVYLVVKGSRSILDLSHGSPSPLLTGSLFACLVW	58700
